Experiments:
Assay in all cases: ELISA, variant from culture supernatant on Ni-NTA plate
[1] = molecular target: 391-2 hu/bov-DS-Cav1-BZGJ9 Long
[2] = molecular target: 391-2 sc9 DS-Cav1 98C-362C
[3] = molecular target: 391-2-DS-Cav1-BZGJ9 Long K226L
[4] = molecular target: 391-2-DS-Cav1-BZGJ9 Long S190V
391-2-DS-Cav1-IP-5 = molecular target: 391-2-DS-Cav1-IP-5
[5] = molecular target: 391-2-DS-Cav1-sc9 100C-361C
[6] = molecular target: 391-2-DS-Cav1-sc9 100C-362C
[7] = molecular target: 391-2-DS-Cav1-sc9deleteFS 100C-362C
[8] = molecular target: 391-2-DS-Cav1-sc9deleteFS 98C-361C
[9] = molecular target: 391-2-DS-Cav1-sc9deleteFS 99C-362C
[10] = molecular target: 391-2-DS-Cav1_ I28C-G464C
[11] = molecular target: 391-2-DS-Cav1_ sc9_S398C-S485C
[12] = molecular target: 391-2-DS-Cav1_ sc9_S485C-A490C
[13] = molecular target: 391-2-DS-Cav1_ sc9_T449C-V459C
391-2-DSCav1- F-SC_7R = molecular target: 391-2-DSCav1- F-SC_7R
391-2_DS-Cav1-tzsc3 = molecular target: 391-2_DS-Cav1-tzsc3
391-2_DS-Cav1-tzsc5 = molecular target: 391-2_DS-Cav1-tzsc5
391-2_DS-Cav1-tzsc7 = molecular target: 391-2_DS-Cav1-tzsc7
391-2wt_F-SC_12R core = molecular target: 391-2wt_F-SC_12R core
[14] = molecular target: RB94 DS-CAV1 T369C-T455C Long
RB94 DS-Cav1 Long FdPL = molecular target: RB94 DS-Cav1 Long FdPL
[15] = molecular target: RB94 hu/bov DS-CAV1 A149C-Y458C Long
[16] = molecular target: RB94 hu/bov DS-Cav1 Long FdPL
[17] = molecular target: RB94 sc9 DS-CAV1 A149C-Y458C L373R Long K226L
[18] = molecular target: RB94 sc9 DS-CAV1 A149C-Y458C L373R Long
[19] = molecular target: RB94 sc9 DS-CAV1 N183GC-N428C L373R Long K226L
[20] = molecular target: RB94 sc9 DS-CAV1 N183GC-N428C L373R Long S190V
[21] = molecular target: RB94 sc9 DS-CAV1 N183GC-N428C L373R Long
[22] = molecular target: RB94 site 0 hRSV DS-Cav1 Long FdPL
[23] = molecular target: RB94 site 0 hRSV bovSurf DS-Cav1 Long FdPL
[24] = molecular target: sc9-10_DS-CAV1_bRSV(RB94)_Fd_fp2_ig1
[25] = molecular target: sc9-10_DS-CAV1_bRSV(RB94)_Fd_hp1_fp1_ig1
[26] = molecular target: sc9-10_DS-CAV1_bRSV(RB94)_Fd_hp1_fp2_ig1
[27] = molecular target: sc9-10_DS-CAV1_bRSV(RB94)_Fd_hp1_ig1
[28] = molecular target: sc9-10_DS-CAV1_bRSV(RB94)_Fd_hp2_fp1_ig1
[29] = molecular target: sc9-10_DS-CAV1_bRSV(RB94)_Fd_pm1_fp1_ig1
[30] = molecular target: sc9-10_DS-CAV1_bRSV(RB94)_Fd_pm1_fp2_ig1
[31] = molecular target: sc9-10_DS-CAV1_bRSV(RB94)_Fd_pm1_ig1

motavizumab (antibody)
ELISA binding value [1]: 1.7 | ELISA binding value [2]: 0.75 | ELISA binding value [3]: 1.94 | ELISA binding value [4]: 1.31 | ELISA binding value (391-2-DS-Cav1-IP-5): 1.83 | ELISA binding value [5]: 1.63 | ELISA binding value [6]: 0.603 | ELISA binding value [7]: 0.503 | ELISA binding value [8]: 0.899 | ELISA binding value [9]: 0.612 | ELISA binding value [10]: 1.21 | ELISA binding value [11]: 0.487 | ELISA binding value [12]: 0.595 | ELISA binding value [13]: 0.49 | ELISA binding value (391-2-DSCav1- F-SC_7R): 0.649 | ELISA binding value (391-2_DS-Cav1-tzsc3): 0.785 | ELISA binding value (391-2_DS-Cav1-tzsc5): 1.57 | ELISA binding value (391-2_DS-Cav1-tzsc7): 1.99 | ELISA binding value (391-2wt_F-SC_12R core): 0.821 | ELISA binding value [14]: 0.448 | ELISA binding value (RB94 DS-Cav1 Long FdPL): 0.841 | ELISA binding value [15]: 0.79 | ELISA binding value [16]: 1.44 | ELISA binding value [17]: 0.486 | ELISA binding value [18]: 0.512 | ELISA binding value [19]: 0.633 | ELISA binding value [20]: 0.617 | ELISA binding value [21]: 0.488 | ELISA binding value [22]: 1.75 | ELISA binding value [23]: 1.86 | ELISA binding value [24]: 0.748 | ELISA binding value [25]: 2.22 | ELISA binding value [26]: 1.8 | ELISA binding value [27]: 2.42 | ELISA binding value [28]: 2.18 | ELISA binding value [29]: 1.81 | ELISA binding value [30]: 1.32 | ELISA binding value [31]: 2.22

Source: patent US20190330277A1
